The results in this text go back to patent US20210032308A1 (published 2021).

The target of test [1] is ML3d1-Pfe. The experiment in a line: SPR. Background: In SPR one partner is held on a chip, and binding of the other changes the refractive index at the surface.
The target in test [2] is ML1d1-Pfe. The experiment in a line: SPR.

B1: CD2 (receptor)
chain: KEITNALETWGALGQDINLDIPSFQMSDDIDDIKWEKTSDKKKIAQFRKEKETFKEKDTYKLFKNGTLKIKHLKTDDQDIYKVSIYDTKGKNVLEKIFDLKIQERVSKPKISWTCINTTLTCEVMNGTDPELNLYQDGKHLKLSQRVITHKWTTSLSAKFKCTAGNKVSKESSVEPVSCPEKGLD
modifications: biotinylated (site not stated)
Take B1: the figures for the Kd in test [1] and in test [2] were 52 nM and 82 nM, respectively.
